Assay [1] addresses rBCMA conjugated with AF647 (UniProt Q02223). As to the kind of experiment: flow cytometry of primary T cells transduced with the CAR, stained with labelled recombinant BCMA (sheet: rBCMA-APC, APC-A; text: BCMA-AF647 at 1 ug/ml); untransduced T cells (UT) give 0.61 in the same gate.
The target in assay [2] is recombinant human BCMA (Acro Biosystems) (human) (UniProt Q02223). As to the kind of experiment: SPR, scFv-Fc captured by anti-human IgG Fc on a CM5 chip, BCMA as analyte, global fit. (In general: SPR reads the build-up and loss of mass on a sensor chip optically.)
Assay [3] shares this target. As to the kind of experiment: SPR: scFv-Fc captured on an anti-human IgG Fc CM5 chip (sheet: ligand 20nM), recombinant human BCMA as analyte, 1:1 Binding model, 25 C.

B1: 15B2 (protein, part only; not given: hinge, transmembrane and signalling domains, part only)
CAR chain, part: EVQLVESGGGLVKPGGSLRLSCAASGFTFRSYSMNWVRQAPGKGLEWVSSISGSSNYIYYADSVKGRFTISRDNAKNSLYLQMNSLRAEDTAVYYCARGGNYYVEYFQYWGQGTLVTVSSGGGGSGGGGSGGGGSGGGGSEIVLTQSPGTLSLSPGERATLSCRASQYISSNYLAWYQQKPGQAPRLLIYGASNRATGIPDRFSGSGSGTDFTLTISRLEPEDFAVYYCQQYGSSPITFGQGTKLEIK
Take B1: the % BCMA CAR+ cells in assay [1] was 99.6%.

B2: 7A8.11 scFv-Fc (Fc fusion, not shown: a dimerising Fc or GST; small tags and cut ends)
scFv: EVQLVESGGGLVQPGGSLRLSCEASGFTFSSFWMNWVRQAPGKGLEWVANIKEDGSEKYYVDSVKGRFTISRDNAKNSLYLQMNSLRVEDTAVYYCARALDYYGMDVWGQGTTVTVSSGGGGSGGGGSGGGGSGGGGSYIVMTQTPLSLPVTPGEPASISCRSSQSLLDSDDGNTYLDWYLQKPGQSPQLLIYTLSYRASGVPDRFSGSGSGTDFTLKISRVEAEDVGVYYCMQRIEFPSYTFGQGTKLEIK
For the molecule B2, in assay [2], the Kd (as a rule, the free concentration of one partner at which half of the binding sites on the other are occupied at equilibrium, for simple one-to-one binding) amounted to 0.44 nM. For the same molecule, in assay [3], the Kd amounted to 0.355 nM; the koff – broadly, a measure of how fast the partners let go of each other – is 0.00486 s⁻¹; the kon – broadly, the second-order rate constant of association – came out at 1.37e+07 M⁻¹ s⁻¹.

B3: L15 scFv-Fc (Fc fusion, not shown: a dimerising Fc or GST; small tags and cut ends)
scFv: EVQLVESGGGLVKPGGSLRLSCAASGFTFSSYSMNWVRQAPGKGLEWVSSISGQSNYIYYADSVKGRFTISRDNAKNSLYLQMNSLRAEDTAVYYCARGGNYFVEYFQYWGQGTLVTVSSGSGGGGSGGGGSGGGGSGGGGSEIVLTQSPGTLSLSPGERATLSCRASQYISSNNLAWYQQKPGQAPRLLIYGASNRATGIPDRFSGSGSGTDFTLTISRLEPEDFAVYYCQQYADSPITFGQGTKLEIK
In the case of B3, in assay [2], the Kd stood at 0.37 nM. In assay [3], the Kd worked out at 0.371 nM, the koff is 0.000673 s⁻¹ and the kon was found to be 1.81e+06 M⁻¹ s⁻¹.

For the origin of these results see US20240350630A1.
